Patent US10919943B2, “Mutant proteins enabling agrochemical control of plant gene expression” (The Regents of the University of California, priority 2016, dated 2021)

T1: PYR1 (Arabidopsis thaliana, UniProt O49686)
T1 construct: expressed in transfected cells; host or cells: S. cerevisiae strain Y190
T1 sequence (O49686 1-191): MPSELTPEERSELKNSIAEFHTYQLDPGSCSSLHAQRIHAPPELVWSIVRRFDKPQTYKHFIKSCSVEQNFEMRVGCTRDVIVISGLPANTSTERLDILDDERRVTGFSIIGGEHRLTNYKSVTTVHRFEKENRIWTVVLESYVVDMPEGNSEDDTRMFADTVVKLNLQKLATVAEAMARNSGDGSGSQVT


target: T1, PYR1; test: Yeast two hybrid of pACT-HAB1 site saturation mutants with pBD-PYR1 on 10 μM ABA, β-galactosidase staining; format: cell-based; parameters: key: x: Mutations in HAB1 that disrupt HAB1 interaction with PYR1; settings: S. cerevisiae Y190, 10 μM ABA; dead = lack of detectable staining in comparison to wild type control
Summary of the method: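 HAB1 (lacking three N-terminal residues) site-saturation mutants in pACT were co-transformed with pBD-PYR1 into S. cerevisiae Y190 and spotted on SD (-Leu,-Trp) with 10 μM ABA. After 2 days at 30 °C, chloroform-lysed colonies were stained for β-galactosidase; "dead" means no detectable staining versus wild-type pair.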

| Mutations in HAB1 that disrupt HAB1 interaction with PYR1 | Molecule |
| --- | --- |
| x | H245Q: HAB1 mutant (protein, UniProt Q9CAJ0 23-511, looked up, variant H245Q) Protein phosphatase 2C 16: SPVEITQLKNVTDAADLLSDSENQSFCNGGTECTMEDVSELEEVGEQDLLKTLSDTRSGSSNVFDEDDVLSVVEDNSAVISEGLLVVDAGSELSLSNTAMEIDNGRVLATAIIVGESSIEQVPTAEVLIAGVNQDTNTSEVVIRLPDENSNHLVKGRSVYELDCIPLWGTVSIQGNRSEMEDAFAVSPHFLKLPIKMLMGDHEGMSPSLTHLTGHFFGVYDGQGGHKVADYCRDRLHFALAEEIERIKDELCKRNTGEGRQVQWDKVFTSCFLTVDGEIEGKIGRAVVGSSDKVLEAVASETVGSTAVVALVCSSHIVVSNCGDSRAVLFRGKEAMPLSVDHKPDREDEYARIENAGGKVIQWQGARVFGVLAMSRSIGDRYLKPYVIPEPEVTFMPRSREDECLILASDGLWDVMNNQEVCEIARRRILMWHKKNGAPPLAERGKGIDPACQAAADYLSMLALQKGSKDNISIIVIDLKAQRKFKTRT |
| x | H245R: HAB1 mutant (protein, UniProt Q9CAJ0 23-511, looked up, variant H245R) Protein phosphatase 2C 16: SPVEITQLKNVTDAADLLSDSENQSFCNGGTECTMEDVSELEEVGEQDLLKTLSDTRSGSSNVFDEDDVLSVVEDNSAVISEGLLVVDAGSELSLSNTAMEIDNGRVLATAIIVGESSIEQVPTAEVLIAGVNQDTNTSEVVIRLPDENSNHLVKGRSVYELDCIPLWGTVSIQGNRSEMEDAFAVSPHFLKLPIKMLMGDHEGMSPSLTHLTGHFFGVYDGRGGHKVADYCRDRLHFALAEEIERIKDELCKRNTGEGRQVQWDKVFTSCFLTVDGEIEGKIGRAVVGSSDKVLEAVASETVGSTAVVALVCSSHIVVSNCGDSRAVLFRGKEAMPLSVDHKPDREDEYARIENAGGKVIQWQGARVFGVLAMSRSIGDRYLKPYVIPEPEVTFMPRSREDECLILASDGLWDVMNNQEVCEIARRRILMWHKKNGAPPLAERGKGIDPACQAAADYLSMLALQKGSKDNISIIVIDLKAQRKFKTRT |
| x | H245T: HAB1 mutant (protein, UniProt Q9CAJ0 23-511, looked up, variant H245T) Protein phosphatase 2C 16: SPVEITQLKNVTDAADLLSDSENQSFCNGGTECTMEDVSELEEVGEQDLLKTLSDTRSGSSNVFDEDDVLSVVEDNSAVISEGLLVVDAGSELSLSNTAMEIDNGRVLATAIIVGESSIEQVPTAEVLIAGVNQDTNTSEVVIRLPDENSNHLVKGRSVYELDCIPLWGTVSIQGNRSEMEDAFAVSPHFLKLPIKMLMGDHEGMSPSLTHLTGHFFGVYDGTGGHKVADYCRDRLHFALAEEIERIKDELCKRNTGEGRQVQWDKVFTSCFLTVDGEIEGKIGRAVVGSSDKVLEAVASETVGSTAVVALVCSSHIVVSNCGDSRAVLFRGKEAMPLSVDHKPDREDEYARIENAGGKVIQWQGARVFGVLAMSRSIGDRYLKPYVIPEPEVTFMPRSREDECLILASDGLWDVMNNQEVCEIARRRILMWHKKNGAPPLAERGKGIDPACQAAADYLSMLALQKGSKDNISIIVIDLKAQRKFKTRT |
| x | H245S: HAB1 mutant (protein, UniProt Q9CAJ0 23-511, looked up, variant H245S) Protein phosphatase 2C 16: SPVEITQLKNVTDAADLLSDSENQSFCNGGTECTMEDVSELEEVGEQDLLKTLSDTRSGSSNVFDEDDVLSVVEDNSAVISEGLLVVDAGSELSLSNTAMEIDNGRVLATAIIVGESSIEQVPTAEVLIAGVNQDTNTSEVVIRLPDENSNHLVKGRSVYELDCIPLWGTVSIQGNRSEMEDAFAVSPHFLKLPIKMLMGDHEGMSPSLTHLTGHFFGVYDGSGGHKVADYCRDRLHFALAEEIERIKDELCKRNTGEGRQVQWDKVFTSCFLTVDGEIEGKIGRAVVGSSDKVLEAVASETVGSTAVVALVCSSHIVVSNCGDSRAVLFRGKEAMPLSVDHKPDREDEYARIENAGGKVIQWQGARVFGVLAMSRSIGDRYLKPYVIPEPEVTFMPRSREDECLILASDGLWDVMNNQEVCEIARRRILMWHKKNGAPPLAERGKGIDPACQAAADYLSMLALQKGSKDNISIIVIDLKAQRKFKTRT |
